According to US20080058263A1 (published 2008):

Assays:
Assay in all cases: receptor-Fc IP
VEGFR-1-Fc = target: T1, VEGFR-1-Fc (UniProt P17948 27-338)
T1 construct: domain: first three Ig domains; expressed in Drosophila S2 cells, purified on Protein A sepharose; also called VEGFR-1-Fc fusion protein; not shown: Fc fragment from the Signal-pIgPlus vector
Outline: (§1)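 Binding of ligand from sample supernatant measured by pentahistidine-antibody immunoprecipitation. IP mix: PBS with 1.5% BSA, 0.06% Tween 20, 3 μg/ml heparin and 400 ng/ml fusion protein, added 1:2 to sample supernatant.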

VEGFR-3-Fc = target: T2, VEGFR-3-Fc (UniProt P35916 25-328)
T2 construct: domain: first three Ig domains; conditioned supernatant of 293T cells; also called VEGFR-3-Fc fusion protein; not shown: Fc fragment of the pIg vector
T2 sequence (looked up): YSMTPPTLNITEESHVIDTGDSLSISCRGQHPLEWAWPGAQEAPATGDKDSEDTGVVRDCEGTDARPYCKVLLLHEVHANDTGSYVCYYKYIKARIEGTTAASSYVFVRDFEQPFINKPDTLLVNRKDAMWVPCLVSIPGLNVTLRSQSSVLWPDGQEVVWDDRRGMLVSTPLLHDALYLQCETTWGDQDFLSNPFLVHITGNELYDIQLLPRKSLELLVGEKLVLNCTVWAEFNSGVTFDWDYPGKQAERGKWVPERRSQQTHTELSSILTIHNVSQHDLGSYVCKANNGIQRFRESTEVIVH
Outline: as §1

VEGFR-2-Fc = target: T3, VEGFR-2-Fc (UniProt P35968 20-322)
T3 construct: domain: first 3 Ig domains; conditioned supernatant of 293T cells; also called VEGFR-2-Fc fusion protein; not shown: Fc fragment of the pIg vector
Outline: as §1

Measured: binding result

T1 sequence (P17948 27-338): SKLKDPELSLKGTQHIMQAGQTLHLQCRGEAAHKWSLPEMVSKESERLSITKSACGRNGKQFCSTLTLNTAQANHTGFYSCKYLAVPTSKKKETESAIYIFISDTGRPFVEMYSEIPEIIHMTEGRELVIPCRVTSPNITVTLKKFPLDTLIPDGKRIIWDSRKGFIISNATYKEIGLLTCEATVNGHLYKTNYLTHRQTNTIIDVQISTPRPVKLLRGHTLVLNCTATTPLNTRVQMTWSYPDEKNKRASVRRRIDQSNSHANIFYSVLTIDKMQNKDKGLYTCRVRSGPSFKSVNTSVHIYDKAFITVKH
T3 sequence (P35968 20-322): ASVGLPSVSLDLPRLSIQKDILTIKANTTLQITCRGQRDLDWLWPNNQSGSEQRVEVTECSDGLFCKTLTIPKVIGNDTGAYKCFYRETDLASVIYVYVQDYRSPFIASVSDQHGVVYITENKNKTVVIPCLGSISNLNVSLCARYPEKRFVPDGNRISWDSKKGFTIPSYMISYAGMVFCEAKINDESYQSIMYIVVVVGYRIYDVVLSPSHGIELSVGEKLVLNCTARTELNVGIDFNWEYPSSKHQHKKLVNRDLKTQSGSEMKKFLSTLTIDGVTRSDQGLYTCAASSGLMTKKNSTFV

B1: 42-10 (ligand)
chain: AHYNTEILKFMDVYQRSYCHPREVCIDVGKEFGVATNTFFKPPCVSVYRCGGCCNDEGLECMNTSTSYLSKTLFEITVPLSQGPKPVTISFLQHNKCECRPKKD
no binding: all assays above

B2: 42-12 (ligand)
chain: AHYNTEILKFMDVYQRSYCHPREVCIDVGKEFGVATNTFFKPPCVSVYRCGGCCNSEGLQCMNTSTSYLSKTLFEITVPLSQGPKPVTISFLQHNKCECRPKKD
no binding: all assays above

B3: 42-9 (ligand)
chain: AHYNTEILKFMDVYQRSYCHPREVCIDVGKEFGVATNTFFKPPCVSVYRCGGCCNDEGLECVPTEESNITMQIMRITVPLSQGPKPVTISFLQHNKCECRPKKD
no binding: all assays above

B4: 42-15 (ligand)
chain: AHYNTEILKFMDVYQRSYCHPREVCIDVGKEFGVATNTFFKPPCVSVYRCGGCCNSEGLQCVPTEESNITMQIMRITVPLSQGPKPVTISFANHTSCRCMSKLD
no binding: all assays above

B5: 42-11 (ligand)
chain: AHYNTEILKFMDVYQRSYCHPREVCIDVGKEFGVATNTFFKPPCVSVYRCGGCCNSEGLQCVPTEESNITMQIMRITVPLSQGPKPVTISFLQHNKCECRPKKD
no binding: all assays above

B6: 42-13 (ligand)
chain: AHYNTEILKFMDVYQRSYCHPREVCIDVGKEFGVATNTFFKPPCVSVYRCGGCCNDEGLECVPTEESNITMQIMRITVPLSQGPKPVTISFANHTSCRCMSKLD
no binding: all assays above

B7: 34-14 (ligand)
chain: GQNHHEVVKSIDNEWRKTQCMPIETLVDIFQEFGVATNTFFKPSCVPLMRCGGCCNDEGLECMNTSTSYLSKTLFEITVPLSQGPKPVTISFANHTSCRCMSKLD
no binding: all assays above

B8: 41-14 (ligand)
chain: AHYNTEILKFMDVYQRSYCHPREVCIDVGKEYPDEIEYIFKPSCVPLMRCGGCCNDEGLECMNTSTSYLSKTLFEITVPLSQGPKPVTISFANHTSCRCMSKLD
no binding: all assays above

B9: 43-14 (ligand)
chain: AHYNTEILKFMDVYQRSYCHPREVCIDVGKEYPDEIEYIFKPPCVSVYRCGGCCNDEGLECMNTSTSYLSKTLFEITVPLSQGPKPVTISFANHTSCRCMSKLD
no binding: all assays above

B10: 43-16 (ligand)
chain: AHYNTEILKFMDVYQRSYCHPREVCIDVGKEYPDEIEYIFKPPCVSVYRCGGCCNSEGLQCMNTSTSYLSKTLFEITVPLSQGPKPVTISFANHTSCRCMSKLD
no binding: all assays above

B11: 41-16 (ligand)
chain: AHYNTEILKFMDVYQRSYCHPREVCIDVGKEYPDEIEYIFKPSCVPLMRCGGCCNSEGLQCMNTSTSYLSKTLFEITVPLSQGPKPVTISFANHTSCRCMSKLD
no binding: all assays above

B12: 42-1 (ligand)
chain: AHYNTEILKFMDVYQRSYCHPREVCIDVGKEFGVATNTFFKPPCVSVYRCGGCCNDEGLECVPTEESNITMQIMRIKPHQGQHIGEMSFLQHNKCECRPKKD
no binding: all assays above

B13: 42-6 (ligand)
chain: AHYNTEILKFMDVYQRSYCHPREVCIDVGKEFGVATNTFFKPPCVSVYRCGGCCNDEGLECMNTSTSYLSKTLFEIKPHQGQHIGEMSFANHTSCRCMSKLD
no binding: all assays above

B14: 42-8 (ligand)
chain: AHYNTEILKFMDVYQRSYCHPREVCIDVGKEFGVATNTFFKPPCVSVYRCGGCCNSEGLQCMNTSTSYLSKTLFEIKPHQGQHIGEMSFANHTSCRCMSKLD
no binding: all assays above

B15: 34-15 (ligand)
chain: GQNHHEVVKSIDNEWRKTQCMPIETLVDIFQEFGVATNTFFKPSCVPLMRCGGCCNSEGLQCVPTEESNITMQIMRITVPLSQGPKPVTISFANHTSCRCMSKLD
no binding: all assays above

B16: 41-6 (ligand)
chain: AHYNTEILKFMDVYQRSYCHPREVCIDVGKEYPDEIEYIFKPSCVPLMRCGGCCNDEGLECMNTSTSYLSKTLFEIKPHQGQHIGEMSFANHTSCRCMSKLD
no binding: all assays above

B17: 21-3 (ligand)
chain: AHYNTEILKSIDNEWRKTQCMPREVCIDVGKEYPDEIEYIFKPSCVPLMRCGGCCNSEGLQCVPTEESNITMQIMRIKPHQGQHIGEMSFLQHNKCECRPKKD
no binding: all assays above

B18: 44-2 (ligand)
chain: AHYNTEILKFMDVYQRSYCHPREVCIDVGKEFGVATNTFFKPSCVPLMRCGGCCNDEGLECMNTSTSYLSKTLFEIKPHQGQHIGEMSFLQHNKCECRPKKD
no binding: all assays above

B19: 41-9 (ligand)
chain: AHYNTEILKFMDVYQRSYCHPREVCIDVGKEYPDEIEYIFKPSCVPLMRCGGCCNDEGLECVPTEESNITMQIMRITVPLSQGPKPVTISFLQHNKCECRPKKD
no binding: all assays above

B20: 43-9 (ligand)
chain: AHYNTEILKFMDVYQRSYCHPREVCIDVGKEYPDEIEYIFKPPCVSVYRCGGCCNDEGLECVPTEESNITMQIMRITVPLSQGPKPVTISFLQHNKCECRPKKD
no binding: all assays above

B21: 41-11 (ligand)
chain: AHYNTEILKFMDVYQRSYCHPREVCIDVGKEYPDEIEYIFKPSCVPLMRCGGCCNSEGLQCVPTEESNITMQIMRITVPLSQGPKPVTISFLQHNKCECRPKKD
no binding: all assays above

B22: 43-11 (ligand)
chain: AHYNTEILKFMDVYQRSYCHPREVCIDVGKEYPDEIEYIFKPPCVSVYRCGGCCNSEGLQCVPTEESNITMQIMRITVPLSQGPKPVTISFLQHNKCECRPKKD
no binding: all assays above

B23: 21-4 (ligand)
chain: AHYNTEILKSIDNEWRKTQCMPREVCIDVGKEYPDEIEYIFKPSCVPLMRCGGCCNSEGLQCMNTSTSYLSKTLFEIKPHQGQHIGEMSFLQHNKCECRPKKD
no binding: all assays above
